Measurements taken from paper PMC6523098 (2019).

Molecular target: T1, His:AtBPM3 (Arabidopsis thaliana (Mouse-ear cress), UniProt O22286)
T1 chain: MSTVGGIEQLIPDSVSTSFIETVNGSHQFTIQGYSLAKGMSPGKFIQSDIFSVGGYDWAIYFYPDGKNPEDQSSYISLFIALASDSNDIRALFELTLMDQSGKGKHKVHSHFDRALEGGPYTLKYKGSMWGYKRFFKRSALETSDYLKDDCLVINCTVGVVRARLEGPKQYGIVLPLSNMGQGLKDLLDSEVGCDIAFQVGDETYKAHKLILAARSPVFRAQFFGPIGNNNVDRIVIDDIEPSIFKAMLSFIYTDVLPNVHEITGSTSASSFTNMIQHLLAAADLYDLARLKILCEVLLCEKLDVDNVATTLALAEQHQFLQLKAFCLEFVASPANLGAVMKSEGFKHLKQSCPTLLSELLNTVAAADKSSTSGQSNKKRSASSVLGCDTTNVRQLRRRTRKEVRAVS
Assay: pulldown

B1: GST:AtRAP2.4 (protein)
chain: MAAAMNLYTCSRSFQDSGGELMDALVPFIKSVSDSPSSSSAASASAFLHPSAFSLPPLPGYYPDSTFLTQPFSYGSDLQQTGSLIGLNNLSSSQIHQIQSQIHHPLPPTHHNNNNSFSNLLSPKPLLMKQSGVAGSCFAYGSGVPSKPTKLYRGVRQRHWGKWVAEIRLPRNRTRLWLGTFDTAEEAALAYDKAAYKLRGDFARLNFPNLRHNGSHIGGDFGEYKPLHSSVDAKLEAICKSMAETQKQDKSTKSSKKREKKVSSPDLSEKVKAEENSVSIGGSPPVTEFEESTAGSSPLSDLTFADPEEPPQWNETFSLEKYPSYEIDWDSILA
binding result: binds
